1 substance from US20180273626A1 can be followed below.

As usually defined, the Kd is a measure of binding affinity in units of concentration. Higher therefore signals weaker binding.

The target of experiment [1] is FcεRIα (human) (UniProt P12319). The experiment in a line: SPR; mammalian derived. For orientation: Surface plasmon resonance follows binding to a sensor surface in real time, without labels.
The target is the same in experiment [2]. The experiment in a line: SPR; insect derived.

Chain of IgE-Fc3-4 (P01854 209-426): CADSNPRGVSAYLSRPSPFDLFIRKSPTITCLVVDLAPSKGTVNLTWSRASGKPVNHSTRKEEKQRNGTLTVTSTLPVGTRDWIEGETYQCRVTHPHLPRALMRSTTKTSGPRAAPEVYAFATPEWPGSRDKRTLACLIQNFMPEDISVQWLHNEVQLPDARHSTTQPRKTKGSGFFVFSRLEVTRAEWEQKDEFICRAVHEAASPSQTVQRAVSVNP
Chain of FcεRIα (human) (P12319 26-201): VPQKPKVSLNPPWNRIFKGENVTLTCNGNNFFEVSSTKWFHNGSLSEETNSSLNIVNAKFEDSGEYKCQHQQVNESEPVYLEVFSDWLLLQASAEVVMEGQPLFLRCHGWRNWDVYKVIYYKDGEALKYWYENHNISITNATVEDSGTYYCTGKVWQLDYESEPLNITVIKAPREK

In the case of IgE-Fc3-4 (from UniProt P01854 209-426), the dissociation constant Kd was found to be 0.933 nM with FcεRIα (human) [1] and 0.66 nM with FcεRIα (human) [2].
